Laboratory results published in PMC5430726, “Grb2 carboxyl-terminal SH3 domain can bivalently associate with two ligands, in an SH3 dependent manner” (Scientific Reports, 2017).

Key:
[1] = target: T1, Grb2 C-terminal SH3 domain (SH3C), residues 155-217 (mouse, UniProt Q60631 155-217); test: ITC; SLP65 peptide titrated into the preformed Grb2 SH3C-Vav SH3N binary complex (gives Complex 1, Vav displaced); 20 mM sodium phosphate, 100 mM NaCl, pH 6.0, 25 °C; conditions: both partners purified
T1 construct: Uniformly 15N or 15N,13C labelled in the NMR titrations; monomer by glutaraldehyde cross-linking and SEC; also called Grb2 SH3C; Grb2 CSH3 domain; source: E. coli, purified (Ni2+-NTA chromatography); not shown: His tag, N-terminal, cleaved
T1 sequence (Q60631 155-217): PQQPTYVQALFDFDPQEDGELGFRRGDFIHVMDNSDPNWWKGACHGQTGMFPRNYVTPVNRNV

[2] = target: T1, Grb2 C-terminal SH3 domain (SH3C), …; test: ITC; free Grb2 SH3C in the cell (20 uM for the peptide, 40 uM for Vav) titrated with 280 uM SLP65 peptide or 600 uM Vav SH3N; 20 mM sodium phosphate, 100 mM NaCl, pH 6.0, 25 °C; one-site binding model; conditions: both partners purified

B1: SLP65 peptide Ace-EKAPMVNRSTKPNSSS-NH2 (residues 201-216 of mouse SLP65) (peptide)
peptide: Ac-EKAPMVNRSTKPNSSS-NH2
notes: SLP65, mouse, residues 201-216; also called synthetic peptide; source: synthetic peptide
Kd with Vav SH3N prebound to Grb2 SH3C (Vav displaced) [1]: 33.3 ± 1.1 µM
dH with Vav SH3N prebound to Grb2 SH3C (Vav displaced) [1]: -5.9 ± 0.04 kcal/mol
Kd [2]: 3.55 ± 0.2 µM
dH [2]: -6.67 ± 0.15 kcal/mol
stoichiometry N [2]: 0.87 ± 0.02
